Data reported in article PMC11343135.

Legend:
[1] = test system: SARS1-N/M (SUD-N/M) (SARS-CoV); test: zone-interference gel electrophoresis
[2] = test system: SARS2-N/M (SUD-N/M) (SARS-CoV-2 (WA1)); test: zone-interference gel electrophoresis

For BCL2 G4 quadruplex oligonucleotide, the Kd [1] was 1600 nM and the Kd [2] was 4100 nM.
